US20150344570A1 (published 2015)

B1: GpH7-A5/GpH7-B3 variant V266_09D/GpL16-k0 (antibody, human IgG1, kappa)
heavy 1: not shown
heavy 2: not shown
light: DIVMTQSPLSLPVTPGEPASISCQASESLVHSNRNTYLHWYLQKPGQSPQLLIYKVSNRFSGVPDRFSGSGSGTDFTLKISRVEAEDVGVYYCSQNTHVPPTFGQGTKVEIERTVAAPSVFIFPPSDEQLKSGTASVVCLLNNFYPREAKVQWKVDNALQSGNSQESVTEQDSKDSTYSLSSTLTLSKADYEKHKVYACEVTHQGLSSPVTKSFNRGEC
notes: mutation in the GpH7-B3 chain only; also called He Ab
B2: GpH7-A5/GpH7-B3 variant H268_09D/GpL16-k0 (antibody, human IgG1, kappa)
heavy 1: not shown
heavy 2: not shown
light: B1 light
notes: He Ab; alteration in one H chain only; also called He Ab
B3: GpH7-A5/GpH7-B3 variant S267_07I/GpL16-k0 (antibody, human IgG1, kappa)
heavy 1: not shown
heavy 2: not shown
light: B1 light
notes: as for B1
B4: GpH7-A5/GpH7-B3 variant V266_06M/GpL16-k0 (antibody, human IgG1, kappa)
heavy 1: not shown
heavy 2: not shown
light: B1 light
notes: as for B1
B5: GpH7-A5/GpH7-B3 variant S267_06M/GpL16-k0 (antibody, human IgG1, kappa)
heavy 1: not shown
heavy 2: not shown
light: B1 light
notes: as for B1
B6: GpH7-A5/GpH7-B3 variant P271_14T/GpL16-k0 (antibody, human IgG1, kappa)
heavy 1: not shown
heavy 2: not shown
light: B1 light
notes: as for B2
B7: GpH7-A5/GpH7-B3 variant V266_16H/GpL16-k0 (antibody, human IgG1, kappa)
heavy 1: not shown
heavy 2: not shown
light: B1 light
notes: as for B1
B8: GpH7-A5/GpH7-B3 variant V266_15Y/GpL16-k0 (antibody, human IgG1, kappa)
heavy 1: not shown
heavy 2: not shown
light: B1 light
notes: as for B1
B9: GpH7-A5/GpH7-B3 variant K326_02A/GpL16-k0 (antibody, human IgG1, kappa)
heavy 1: not shown
heavy 2: not shown
light: B1 light
notes: as for B2
B10: GpH7-A5/GpH7-B3 variant H268_10E/GpL16-k0 (antibody, human IgG1, kappa)
heavy 1: not shown
heavy 2: not shown
light: B1 light
notes: as for B2
B11: GpH7-A5/GpH7-B3 variant K326_03V/GpL16-k0 (antibody, human IgG1, kappa)
heavy 1: not shown
heavy 2: not shown
light: B1 light
notes: as for B2
B12: GpH7-A5/GpH7-B3 variant V266_07I/GpL16-k0 (antibody, human IgG1, kappa)
heavy 1: not shown
heavy 2: not shown
light: B1 light
notes: as for B1
B13: GpH7-A5/GpH7-B3 variant H268_05P/GpL16-k0 (antibody, human IgG1, kappa)
heavy 1: not shown
heavy 2: not shown
light: B1 light
notes: as for B2
B14: GpH7-A5/GpH7-B3 variant S267_04F/GpL16-k0 (antibody, human IgG1, kappa)
heavy 1: not shown
heavy 2: not shown
light: B1 light
notes: as for B1
B15: GpH7-A5/GpH7-B3 variant V266_11K/GpL16-k0 (antibody, human IgG1, kappa)
heavy 1: not shown
heavy 2: not shown
light: B1 light
notes: as for B1
B16: GpH7-A5/GpH7-B3 variant P271_01G/GpL16-k0 (antibody, human IgG1, kappa)
heavy 1: not shown
heavy 2: not shown
light: B1 light
notes: as for B2
B17: GpH7-A5/GpH7-B3 variant V266_04F/GpL16-k0 (antibody, human IgG1, kappa)
heavy 1: not shown
heavy 2: not shown
light: B1 light
notes: as for B1
B18: GpH7-A5/GpH7-B3 variant H268_19Q/GpL16-k0 (antibody, human IgG1, kappa)
heavy 1: not shown
heavy 2: not shown
light: B1 light
notes: as for B2
B19: GpH7-A5/GpH7-B3 variant V266_14T/GpL16-k0 (antibody, human IgG1, kappa)
heavy 1: not shown
heavy 2: not shown
light: B1 light
notes: as for B1

Tests used:
FcγRIIIa [1] = target: T1, FcγRIIIa (human, UniProt P08637 17-208); assay: SPR; He/Con_3a divided by He/Con_2b (FcγRIIIa against FcγRIIb)
T1 construct: extracellular domain; also called FcgRIIIa; 3a

FcγRIIIa [2] = target: T1, FcγRIIIa; assay: SPR (Biacore), relative binding
FcγRIIb = target: T2, FcγRIIb (human, UniProt P31994 43-217); assay: SPR (Biacore), relative binding
T2 construct: extracellular domain; also called FcgRIIb; 2b
T2 sequence (looked up): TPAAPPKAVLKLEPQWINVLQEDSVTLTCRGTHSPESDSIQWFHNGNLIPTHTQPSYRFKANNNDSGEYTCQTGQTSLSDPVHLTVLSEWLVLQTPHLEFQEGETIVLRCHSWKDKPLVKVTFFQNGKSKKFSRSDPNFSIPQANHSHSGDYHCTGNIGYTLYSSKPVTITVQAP

[3] = target: T3, FcγRIIa H (FcgRIIa type H, His at position 131), extracellular domain with C-terminal His tag (human, UniProt P12318 34-217); assay: SPR; He/Con_2aH divided by He/Con_2b (FcγRIIa H binding over FcγRIIb binding)
T3 construct: extracellular domain; also called 2aH; FcgRIIa H; not shown: His tag at the C terminus
T3 sequence (looked up): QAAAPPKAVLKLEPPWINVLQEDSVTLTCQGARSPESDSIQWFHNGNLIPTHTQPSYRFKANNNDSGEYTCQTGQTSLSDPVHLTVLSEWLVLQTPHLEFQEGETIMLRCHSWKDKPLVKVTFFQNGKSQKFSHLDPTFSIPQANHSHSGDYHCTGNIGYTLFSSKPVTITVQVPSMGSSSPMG

[4] = target: T4, FcγRIIb, extracellular domain with C-terminal His tag (human, UniProt P31994 43-217); assay: SPR (Biacore), relative binding, GpH7-A5/GpH7-B3/GpL16-k0 = 100
T4 construct: extracellular domain; also called 2b; FcgRIIb; not shown: His tag at the C terminus
T4 sequence (looked up): T2 sequence (looked up)

[5] = target: T3, FcγRIIa H (FcgRIIa type H, His at …); assay: as above

T1 sequence (P08637 17-208): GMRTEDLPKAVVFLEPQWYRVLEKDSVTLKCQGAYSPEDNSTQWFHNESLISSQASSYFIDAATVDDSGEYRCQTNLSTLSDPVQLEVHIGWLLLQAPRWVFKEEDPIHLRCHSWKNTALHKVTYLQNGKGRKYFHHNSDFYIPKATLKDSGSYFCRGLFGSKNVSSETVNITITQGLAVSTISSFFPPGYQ

Binder | He_3a/2b (IIIa/IIb) (FcγRIIIa [1]) | He/Con_3a (FcγRIIIa [2]) | He/Con_2b (FcγRIIb) | He_2aH/2b (IIaH/IIb) [3] | He/Con_2b [4] | He/Con_2aH [5]
B1 | 0.27 ratio | 2.7 % of GpH7-A5/GpH7-B3/GpL16-k0 | 10.1 % of GpH7-A5/GpH7-B3/GpL16-k0 |  |  | 
B2 |  |  |  | 0.55 ratio | 239 % of control | 133 % of control
B3 | 0.13 ratio | 25.2 % of GpH7-A5/GpH7-B3/GpL16-k0 | 192 % of GpH7-A5/GpH7-B3/GpL16-k0 |  |  | 
B4 | 0.34 ratio | 85.8 % of GpH7-A5/GpH7-B3/GpL16-k0 | 251 % of GpH7-A5/GpH7-B3/GpL16-k0 |  |  | 
B5 | 0.31 ratio | 66 % of GpH7-A5/GpH7-B3/GpL16-k0 | 210 % of GpH7-A5/GpH7-B3/GpL16-k0 |  |  | 
B6 |  |  |  | 0.64 ratio | 95.4 % of control | 60.9 % of control
B7 | 0.37 ratio | 21.3 % of GpH7-A5/GpH7-B3/GpL16-k0 | 57.2 % of GpH7-A5/GpH7-B3/GpL16-k0 |  |  | 
B8 | 0.29 ratio | 14.5 % of GpH7-A5/GpH7-B3/GpL16-k0 | 49.4 % of GpH7-A5/GpH7-B3/GpL16-k0 |  |  | 
B9 |  |  |  | 0.76 ratio | 139 % of control | 106 % of control
B10 |  |  |  | 0.54 ratio | 230 % of control | 124 % of control
B11 |  |  |  | 0.55 ratio | 175 % of control | 97 % of control
B12 | 0.75 ratio | 114 % of GpH7-A5/GpH7-B3/GpL16-k0 | 152 % of GpH7-A5/GpH7-B3/GpL16-k0 |  |  | 
B13 |  |  |  | 0.7 ratio | 116 % of control | 81.8 % of control
B14 | 0.23 ratio | 11 % of GpH7-A5/GpH7-B3/GpL16-k0 | 48 % of GpH7-A5/GpH7-B3/GpL16-k0 |  |  | 
B15 | -0.7 ratio | -0.7 % of GpH7-A5/GpH7-B3/GpL16-k0 | 1 % of GpH7-A5/GpH7-B3/GpL16-k0 |  |  | 
B16 |  |  |  | 0.55 ratio | 193 % of control | 107 % of control
B17 | 0.6 ratio | 34.7 % of GpH7-A5/GpH7-B3/GpL16-k0 | 57.6 % of GpH7-A5/GpH7-B3/GpL16-k0 |  |  | 
B18 |  |  |  | 0.77 ratio | 133 % of control | 102 % of control
B19 | 0.48 ratio | 39.4 % of GpH7-A5/GpH7-B3/GpL16-k0 | 82.3 % of GpH7-A5/GpH7-B3/GpL16-k0 |  |  | 
